The data set deals with the molecule itself. Nature of the data set: SEC; HR200 Increase (Superdex 200 Increase 10/300 GL) column in 10 mM Tris-Cl, pH 8, 20 mM β-mercaptoethanol, 0.5 ml/min, calibrated with molecular weight markers; for Δ29 100 μl of 1.0 mg/ml injected; self-association.

Several values for one entry are separate records, joined by “and”; a condition that tells them apart may be missing. Equal entries are not always repeated.

B1: CaNce103p, carbonic anhydrase from Candida albicans, wild-type full length (enzyme)
chain: MGRENILKYQLEHDHESDLVTEKDQSLLLDNNNNLNGMNNTIKTHPVRVSSGNHNNFPFTLSSESTLQDFLNNNKFFVDSIKHNHGNQIFDLNGQGQSPHTLWIGCSDSRAGDQCLATLPGEIFVHRNIANIVNANDISSQGVIQFAIDVLKVKKIIVCGHTDCGGIWASLSKKKIGGVLDLWLNPVRHIRAANLKLLEEYNQDPKLKAKKLAELNVISSVTALKRHPSASVALKKNEIEVWGMLYDVATGYLSQVEIPQDEFEDLFHVHDEHDEEEYNPH
notes: Carbonic anhydrase Nce103p of Candida albicans, full length (C-terminus at residue 281); gene amplified from genomic DNA of strain HE109; stop codon kept so that no His-tag is attached; purified on Ni through four natural C-terminal histidines; also called wt; source: E. coli BL23(DE3), purified (HiTrap Ni column, MonoQ)
As for B1, the stoichiometry N (commonly the number of molecules, sites or subunits per partner or assembly) was 2 and 4.

B2: Δ29_CaNce103p, CaNce103p lacking the first 29 amino acids (domain or fragment)
chain: DNNNNLNGMNNTIKTHPVRVSSGNHNNFPFTLSSESTLQDFLNNNKFFVDSIKHNHGNQIFDLNGQGQSPHTLWIGCSDSRAGDQCLATLPGEIFVHRNIANIVNANDISSQGVIQFAIDVLKVKKIIVCGHTDCGGIWASLSKKKIGGVLDLWLNPVRHIRAANLKLLEEYNQDPKLKAKKLAELNVISSVTALKRHPSASVALKKNEIEVWGMLYDVATGYLSQVEIPQDEFEDLFHVHDEHDEEEYNPH
notes: Carbonic anhydrase Nce103p of Candida albicans (strain HE109) lacking the first 29 amino acids; C-terminus at residue 281; no tag (stop codon kept); source: E. coli BL23(DE3), purified (HiTrap Ni column, MonoQ)
Consider B2, for which the “stoichiometry N” value was 4 and 2.

Values taken from PMC6203986, “Crystal structure of carbonic anhydrase CaNce103p from the pathogenic yeast Candida albicans” (BMC Structural Biology, 2018).
